Here are results for 14 molecules from patent US20180194862A1 (AbbVie / Abbott, published 2018).

In one assay the target is T1, human 4-1BB (human, UniProt Q07011 24-186).
T1 construct: SPR (Biacore) analyte; also called hu4-1BB
The assay is described as follows: SPR. (Surface plasmon resonance follows binding to a sensor surface in real time, without labels.)

The target in assay [1] is T2, mouse 4-1BB (mouse, UniProt P20334 24-187).
T2 construct: also called mu4-1BB; murine 4-1BB
T2 sequence (looked up): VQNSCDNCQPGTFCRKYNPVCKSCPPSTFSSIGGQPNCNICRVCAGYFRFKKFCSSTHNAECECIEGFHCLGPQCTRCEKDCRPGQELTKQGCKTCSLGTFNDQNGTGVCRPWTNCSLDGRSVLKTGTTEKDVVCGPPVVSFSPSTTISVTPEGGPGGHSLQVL
The assay is described as follows: SPR.

The target of the next assay is T3, cynomolgus 4-1BB (cynomolgus, UniProt A9YYE7 24-186).
T3 sequence: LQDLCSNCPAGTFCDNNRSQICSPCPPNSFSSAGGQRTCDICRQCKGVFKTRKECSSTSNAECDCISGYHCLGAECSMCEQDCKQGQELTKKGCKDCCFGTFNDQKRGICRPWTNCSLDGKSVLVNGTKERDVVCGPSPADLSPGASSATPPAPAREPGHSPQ
The assay is described as follows: SPR.

Assay [2] concerns the target T2, mouse 4-1BB. The assay can be described thus: SPR (Biacore).
Another assay has as its target T4, mouse CD40 (mouse, UniProt P27512 20-193, limits assumed).
T4 construct: also called murine CD40
T4 sequence (looked up): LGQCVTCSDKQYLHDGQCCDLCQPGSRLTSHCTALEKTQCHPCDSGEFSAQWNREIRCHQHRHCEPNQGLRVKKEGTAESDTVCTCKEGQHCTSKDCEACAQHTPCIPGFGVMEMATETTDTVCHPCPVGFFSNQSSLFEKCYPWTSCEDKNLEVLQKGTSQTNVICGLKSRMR
The assay is described as follows: FACS. On the technique in general: A flow cytometer gives signals particle by particle.

A further assay concerns the target T5, dog CD40 (dog, UniProt Q7YRL5 21-194, limits assumed).
T5 sequence (looked up): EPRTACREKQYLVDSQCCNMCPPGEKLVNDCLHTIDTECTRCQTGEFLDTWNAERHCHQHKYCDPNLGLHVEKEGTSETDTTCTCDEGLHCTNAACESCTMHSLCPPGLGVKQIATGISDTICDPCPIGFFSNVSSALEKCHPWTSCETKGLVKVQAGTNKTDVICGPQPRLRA
The assay can be described thus: FACS.

Assay [3] has as its target human CD40 on cells (HEK293 stable transfectants, HEK-Blue CD40 cells, human B cells, monocytic cells, … (human, UniProt P25942 21-277)). The assay is described as follows: cell-based or functional assay.
Assay [4] concerns the target T6, soluble form of the extracellular domain of human CD40 (Creative BioMart) (human, UniProt P25942 21-193).
T6 construct: Bought
The assay is described as follows: SPR.

For another assay, the target named is T7, human mesothelin (human, UniProt Q13421 296-580, limits assumed).
T7 construct: also called Human MSLN
The assay can be described thus: SPR.

Assay [5] concerns the target T8, soluble form of the extracellular domain of cynomolgus (cyno) CD40 (Creative BioMart) (cynomolgus, UniProt G7PG38 21-193).
T8 construct: extracellular domain; also called Cynomolgus CD40
The assay is described as follows: SPR.

Numbering of substitutions follows the chain as printed.

T6 sequence (P25942 21-193 limits assumed): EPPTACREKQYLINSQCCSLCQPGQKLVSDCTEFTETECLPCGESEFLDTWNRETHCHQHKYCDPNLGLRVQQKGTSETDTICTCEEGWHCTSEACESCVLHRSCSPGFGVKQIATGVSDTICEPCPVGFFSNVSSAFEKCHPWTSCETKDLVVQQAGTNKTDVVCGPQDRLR
Sequence of human CD40 on cells (HEK293 stable transfectants, HEK-Blue CD40 cells, human B cells, monocytic cells, … (P25942 21-277 limits assumed): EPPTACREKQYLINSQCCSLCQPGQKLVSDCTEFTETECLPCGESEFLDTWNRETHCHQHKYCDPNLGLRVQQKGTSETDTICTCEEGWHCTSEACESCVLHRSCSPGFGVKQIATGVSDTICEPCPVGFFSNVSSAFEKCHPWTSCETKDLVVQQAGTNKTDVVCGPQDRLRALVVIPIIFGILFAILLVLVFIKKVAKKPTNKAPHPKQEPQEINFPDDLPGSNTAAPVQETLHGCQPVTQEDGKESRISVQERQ
T7 sequence (Q13421 other isoform, or with tags, fused parts or gaps limits assumed): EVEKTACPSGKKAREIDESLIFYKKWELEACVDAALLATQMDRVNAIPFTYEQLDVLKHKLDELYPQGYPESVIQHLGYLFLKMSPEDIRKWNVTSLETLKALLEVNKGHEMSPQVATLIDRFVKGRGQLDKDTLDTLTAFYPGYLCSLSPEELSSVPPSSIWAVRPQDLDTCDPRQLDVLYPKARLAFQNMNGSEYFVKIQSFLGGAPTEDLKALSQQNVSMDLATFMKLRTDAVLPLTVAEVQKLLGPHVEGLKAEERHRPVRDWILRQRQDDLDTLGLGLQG

B1: TABBY107-rIgG1 (antibody, V domains shown)
VH: QVKLVQSGAALVKPGASVKMSCKASDYTFNDYWVSWVKQRHGESLEWIGEIYPNSGATNFNGKFRGKATLTVDNPTSTAYMELSRLTSEDSAIYYCTREYTRDWFAYWGQGTLVTVSS
VL: DVVLTQTPSILSATIGQSVSISCRSSQSLLDSDGNTYLYWFLQRPGQSPQRLIYLVSNLGSGVPNRFSGSGSGTDFTLKISGVEAEDLGIYYCMQPTHAPYTFGAGTKLELK
notes: rat IgG1, kappa
For B1, the equilibrium dissociation constant (Kd) with human 4-1BB is 0.32 nM; in the assay with mouse 4-1BB [1] it was 6.7 nM; in the assay with cynomolgus 4-1BB it was 0.36 nM; in the assay with mouse 4-1BB [2] it was 6.7 nM. In addition, the koff stood at 0.00014 s⁻¹ with human 4-1BB, 0.0016 s⁻¹ with mouse 4-1BB [1] and 0.00013 s⁻¹ with cynomolgus 4-1BB. The kon was 450000 M⁻¹ s⁻¹ in the assay with human 4-1BB, 240000 M⁻¹ s⁻¹ with mouse 4-1BB [1] and 350000 M⁻¹ s⁻¹ in the assay with cynomolgus 4-1BB.

B2: TABBY106-rIgG1 (antibody, V domains shown)
VH: QVQLQQSGAELAKPGTSVKLSCKASGYTFTSYYIYWVKQRPGQGLEWIGNIWPGNGGTFYGEKFMGKATFTADTSSSTAYMLLGSLTPEDSAYYFCARRPDYSGDDYFDYWGQGVLVTVSS
VL: QVVLTQPKSVSTSLKSTVKLSCKLNSGNIGSYYVHWYQQHAGRSPTTMIYRDDKRPDGVPDRFSGSIDSSSNSAFLTINNVQTEDDAIYFCHSYDSTITPVFGGGTKLTVL
notes: rat IgG1, lambda
Take B2: the Kd with human 4-1BB came to 12 nM; with mouse 4-1BB [1] it was 1.6 nM; with cynomolgus 4-1BB it was 18 nM; with mouse 4-1BB [2], 1.6 nM. The koff with human 4-1BB was 0.026 s⁻¹; with mouse 4-1BB [1], 0.013 s⁻¹; with cynomolgus 4-1BB it was 0.022 s⁻¹. For the same molecule, the kon with human 4-1BB came out at 2.2e+06 M⁻¹ s⁻¹; with mouse 4-1BB [1], 8.1e+06 M⁻¹ s⁻¹; with cynomolgus 4-1BB, 1.2e+06 M⁻¹ s⁻¹.

B3: TABBY103-rIgG1 (antibody, V domains shown)
VH: QVQLQQSGAELVKPGSSVKISCKASDYTFTSNFLHWIKQQPGNGLEWIGWINPGDGDTYYNQKFNGKATLTADKSSTTAYMQLSSLTSEDSAVYFCAGGNYYAAHYPPGPWYFDFWGPGTMVTVSS
VL: DTVLTQSPALAVSLGQRVTISCRASKSVSIYMHWYQQKSGQQPKFLIYTASNLESGVPSRFSGSGSGTDFTLTIDPVEADDIANYYCQQSNELPFTFGSGTKLEIK
notes: rat IgG1, kappa
In the assay with mouse 4-1BB [2], B3 registered a Kd of 0.17 nM.

B4: huAb9-2 (antibody, human IgG1, V domains shown)
VH: EVQLQESGPGLVKPSETLSLTCTVSGYSITSNYYWNWIRQPPGKGLEWMGYIRYDGSNNYNPSLKNRVTISRDTSKNQFSLKLSSVTAADTAVYYCARLDYWGQGTTVTVSS
VL: DAVMTQTPLSLSVTPGQPASISCRSSQSLENTNGNTFLNWFLQKPGQSPQLLIYRVSNRFSGVPDRFSGSGSGTDFTLKISRVEAEDVGVYFCLQVTHVPFTFGQGTKLEIK
notes: human IgG1, kappa
With B4, the binding result in the assay with mouse CD40 was “no binding”. In addition, in the assay with dog CD40, the binding result is “no binding”. In assay [3], the “Maximal activation (OD655)” value came out at 0.27 OD655 and the “NF-κB activation EC50, HEK293 CD40 NFκB reporter cells” value (from here on “NF-κB activation EC50”) came to 0.29 µg/mL.

B5: V5-2 (bispecific antibody)
chain 1: B4 VH
chain 2: B4 VL with F41Y, F92Y
chain 3: EVQLVQSGAEVKKPGASVKVSCKASGDTFKRYYVHWVRQAPGQGLEWMGIINPSGVSTTYAQKFQGRVTMTRDTSTSTVYMELSSLRSEDTAVYYCAEVRGSGFNYFGMDVWGQGTLVTVSS
chain 4: SYELTQPPSVSVSPGQTASITCSGDKLGDKYASWYQQKPGQSPVLVIYQDNRRPSGIPERFSGSNSGNTATLTISGTQAMDEADYYCQAWDSDTYVFGTGTKVTVL
In [4], B5 came in with a Kd of 150 nM, a koff of 0.25 s⁻¹ and a kon of 1.7e+06 M⁻¹ s⁻¹. In addition, in the assay with human mesothelin, binding was put at a Kd of 2 nM, the koff came to 2.8e-05 s⁻¹ and the association rate constant (kon) is 14000 M⁻¹ s⁻¹. In [5], this molecule showed a Kd of 120 nM, a koff of 0.11 s⁻¹ and a kon of 940000 M⁻¹ s⁻¹.

B6: huAb9-1 (antibody, human IgG1, V domains shown)
VH: B4 VH with V68I
VL: B4 VL
notes: human IgG1, kappa
For B6, the binding result in the assay with mouse CD40 is reported as “no binding”. In the assay with dog CD40, the binding result is “no binding”. In [3], the “Maximal activation (OD655)” value turned out to be 0.26 OD655 and the “NF-κB activation EC50” value was 0.19 µg/mL.

B7: huAb9-4 (antibody, human IgG1, V domains shown)
VH: B4 VH with V68I
VL: B4 VL with F41Y, F92Y
notes: human IgG1, kappa
In the case of B7, in the assay with mouse CD40, the binding result is given as “no binding”. In the assay with dog CD40, the binding result was “no binding”. Further, in [3], the “Maximal activation (OD655)” value was determined as 0.61 OD655 and the “NF-κB activation EC50” value was determined as 5.55 µg/mL.

B8: huAb9-6 (antibody, human IgG1, V domains shown)
VH: B4 VH with T30S, N66S
VL: B4 VL with F41Y, F92Y
notes: human IgG1, kappa
For the molecule B8, in the assay with mouse CD40, the binding result is recorded as “no binding”. Moreover, in the assay with dog CD40, the binding result is recorded as “no binding”. Besides, in [3], the “Maximal activation (OD655)” value worked out at 0.54 OD655 and the “NF-κB activation EC50” value was determined as 5.95 µg/mL.

B9: huAb9-3 (antibody, human IgG1, V domains shown)
VH: B4 VH with T30S, N66S
VL: B4 VL
notes: human IgG1, kappa
With B9, the binding result in the assay with mouse CD40 and with dog CD40 was “no binding” each time. Further, the “Maximal activation (OD655)” value in assay [3] came to 0.27 OD655. The “NF-κB activation EC50” value in assay [3] was found to be 0.18 µg/mL.

B10: TABBY102-rIgG1 (antibody, V domains shown)
VH: QVQLQQSGAELAKPGSSVKISCKASGYTLTSYYLNWIKQTTGQGLEYIGYIDTGSGGSHYNEKFKGKATLTVDKSSSTAFMQLSSLTPVDSAVYYCARGGYYDGFFDYWGQGVMVTVSS
VL: DIQMTQSPASLSASLGETVSIECLASEGISNDLAWYQQKSGKSPQFLIYAASRLQDGVPSRFSGSGSGTRYSLKISGMQPEDEADYFCQQSYKYPPTFGSGTKLEIK
notes: rat IgG1, kappa
The molecule B10 returned a Kd in the assay with mouse 4-1BB [2] of 0.84 nM.

B11: TABBY104-rIgG1 (antibody, V domains shown)
VH: QVTLKESGPGILQPSQTLSLTCTFSGFSLSTDGLGVTWIRQPSGKGLEWLANIWWDDDKDYNPSLKNRLTISKDTSNPQAFLKITNVDTADTATYYCARIVPNSGHEDYWGQGVMVIVSS
VL: DIQMTQSPSFLSASVGDRVTINCKASQNINRYLNWYQQKLGEAPKLLMYNTNSMQTGIPSRFSGSGSGTDFTLTISSLQPEDVATYFCLQHNSWPRTFGGGTKLELK
notes: rat IgG1, kappa
B11 showed a Kd with mouse 4-1BB [2] of 0.14 nM.

B12: TABBY105-rIgG2a (antibody, V domains shown)
VH: EVQLVESGGGLVQPGRSMKLSCAASGFTFNNYDMAWVCQAPKRGLEWVATISYDGSTTYYRDSVKGRFTFSRDNAKSTLYLQMDSLRSEDTATYYCARVGAGDFDYWGQGVMVTVSS
VL: DIRMTQSPVSLSTSLGETVNIECLASEDIYSDLAWYQQKPGKSPQLLIYSTNTLQNGVPSRFSGSGSGTQYSLKINSLQSEDVATYFCQQNNNYPYTFGAGTKLELK
notes: rat IgG2a, kappa
In the assay with mouse 4-1BB [2], B12 came in with a Kd of 15 nM.

B13: TABBY101-rIgG1 (antibody, V domains shown)
VH: QIQLVQSGPELKKPGESVKISCKASGYTFTDFAIHWVKQAPGKGLKWMGWINTYTGKPTYADDFKGRFVFSLEASASTANLQISNLKNEDTATYFCSRGAPRPTNWGQGTLVTVSS
VL: DIQMTQSPASLSASLGETVSIECLASEDIYNNLAWYQQKPGKSPQLLIYYESRLQDGVPTRFSGSGSGTQYSLKINSLESEDAATYFCLQDSEYPYTFGAGTKLELK
notes: rat IgG1, kappa
Turning to B13, in the assay with mouse 4-1BB [2], the Kd came to 0.82 nM.

B14: TABBY108-rIgG1 (antibody, V domains shown)
VH: EIQLQESGPGLVRPSQSLSLACSVTGYTITSAYDWSWIRKFPGNKMEWMGYIAYIGFTNSNPSLKSRISITRDTSKNQFFLQLKSVTTEDTATYYCARWSSYIPRYFDFWGPGTMVTVSS
VL: QAVLTQPNSVSTSLGSTVKLSCTITSGNIEDNFVHWYQHYEGRSPTTMIHNDDKRPDGVPDRFSGSIDSSSNSAFLTINNVEIEDEAIYFCHSYVSSINIFGGGTKLTVL
notes: rat IgG1
Take B14: binding in the assay with mouse 4-1BB [2] was characterised by a dissociation constant (Kd) of 0.36 nM.

By Kd is commonly meant the equilibrium constant for the complex coming apart. Higher therefore signals lower affinity. As usually defined, the koff is the first-order rate constant of dissociation. A word on the kon: it is the second-order rate constant of association.
